According to article PMC8360118 (Genes to Cells, 2021):
* marks the point of attachment. αMan = OC[C@H]1O[C@H](*)[C@@H](O)[C@@H](O)[C@@H]1O

T1: soluble form of bovine POMGNT2 (sPOMGNT2, residues 45–580) (bovine, UniProt Q5NDF2 45-580)
T1 sequence (looked up): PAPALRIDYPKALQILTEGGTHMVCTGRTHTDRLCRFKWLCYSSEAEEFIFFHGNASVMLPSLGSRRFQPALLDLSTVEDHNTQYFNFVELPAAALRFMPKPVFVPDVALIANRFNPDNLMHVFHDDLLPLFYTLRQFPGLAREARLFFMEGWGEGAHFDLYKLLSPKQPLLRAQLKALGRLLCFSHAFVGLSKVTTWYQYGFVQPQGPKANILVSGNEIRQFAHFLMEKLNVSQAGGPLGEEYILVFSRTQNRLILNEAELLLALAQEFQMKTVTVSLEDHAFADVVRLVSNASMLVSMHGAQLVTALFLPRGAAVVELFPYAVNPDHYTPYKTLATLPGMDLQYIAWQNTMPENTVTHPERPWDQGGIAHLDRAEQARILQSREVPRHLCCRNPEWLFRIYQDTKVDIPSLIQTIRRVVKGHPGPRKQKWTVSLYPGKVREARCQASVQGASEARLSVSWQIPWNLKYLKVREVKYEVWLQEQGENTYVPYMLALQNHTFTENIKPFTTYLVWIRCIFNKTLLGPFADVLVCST

B1: 379Man long peptide (peptide)
peptide: Ac-TIRTRGAIIQT(αMan)PTLGPIQPTR-NH2
SMILES: CC[C@H](C)[C@H](NC(=O)[C@H](C)NC(=O)CNC(=O)[C@H](CCCNC(=N)N)NC(=O)[C@@H](NC(=O)[C@H](CCCNC(=N)N)NC(=O)[C@@H](NC(=O)[C@@H](NC(C)=O)[C@@H](C)O)[C@@H](C)CC)[C@@H](C)O)C(=O)N[C@H](C(=O)N[C@@H](CCC(N)=O)C(=O)N[C@H](C(=O)N1CCC[C@H]1C(=O)N[C@H](C(=O)N[C@@H](CC(C)C)C(=O)NCC(=O)N1CCC[C@H]1C(=O)N[C@H](C(=O)N[C@@H](CCC(N)=O)C(=O)N1CCC[C@H]1C(=O)N[C@H](C(=O)N[C@@H](CCCNC(=N)N)C(N)=O)[C@@H](C)O)[C@@H](C)CC)[C@@H](C)O)[C@@H](C)O[C@H]1O[C@H](CO)[C@@H](O)[C@H](O)[C@@H]1O)[C@@H](C)CC
B2: 379Man short peptide (peptide)
peptide: Ac-QT(αMan)PTLGPIQPTR-NH2
SMILES: CC[C@H](C)[C@H](NC(=O)[C@@H]1CCCN1C(=O)CNC(=O)[C@H](CC(C)C)NC(=O)[C@@H](NC(=O)[C@@H]1CCCN1C(=O)[C@@H](NC(=O)[C@H](CCC(N)=O)NC(C)=O)[C@@H](C)O[C@H]1O[C@H](CO)[C@@H](O)[C@H](O)[C@@H]1O)[C@@H](C)O)C(=O)N[C@@H](CCC(N)=O)C(=O)N1CCC[C@H]1C(=O)N[C@H](C(=O)N[C@@H](CCCNC(=N)N)C(N)=O)[C@@H](C)O

Target: T1, soluble form of bovine POMGNT2 …
Test: crystal structure

Binder	binding result
B1	binds
B2	binds
